Laboratory results taken from US11807881B2, “Polypeptide, fusion polypeptide, and antibiotic against gram-negative bacteria comprising same” (priority 2020, dated 2023).

Legend:
[1] = system: Pseudomonas aeruginosa PA01; test: Galleria mellonella Pseudomonas aeruginosa infected model, viability; assay type: in vivo; conditions: PA01 50 CFU/larva
Protocol: The Pseudomonas aeruginosa killing ability of the endolysin LNT101 was also confirmed in vivo. As an animal model for the in vivo effectivity evaluation, Galleria mellonella was used. The Galleria mellonella model was divided into the healthy group (non-infection group), Pseudomonas aeruginosa infected group (drug non-administration group), 2 LNT101 administration groups in which LNT101 was administered into the infection model, Colistin administration group in which colistin was administered into the Pseudomonas aeruginosa infected model, and combination administration group in which LNT101 and colistin were administered in combination into the Pseudomonas aeruginosa infected model to progress an experiment, and 10 of Galleria mellonella per each group was used.
The Pseudomonas aeruginosa infected model was prepared by infecting Pseudomonas aeruginosa PA01 at the LD80 concentration, 50 CFU/larva, and LNT101 was administered at 0.6 μg/larva (3 mg/Kg) and 6 μg/larva (30 mg/Kg), respectively. Colistin was administered at 0.5 μg/larva (2.5 mg/Kg), and for administration in combination, Colistin at 0.5 μg/larva (2.5 mg/Kg) and LNT101 at 6 μg/larva (30 mg/Kg) were administered. […] In particular, in the LNT101 6 μg/larva (30 mg/Kg) administration group, the viability of 30% was confirmed.

Enterobacter cloacae = test: Spot test (halo zone); assay type: cell-based; parameters: key: ‘◯’ means production of the halo zone; conditions: E. cloacae CCARM 0252
Text: (§1) In the present example, in order to investigate a target bacteria spectrum of the bacteriophage PBPA90 selected in the Examples 1.1 and 1.2 and endolysin LNT101 separated and purifying in the Example 1.3, the antibacterial activity against gram negative bacterium such as Pseudomonas aeruginosa ATCC13388, ATCC9027, ATCC10145, ATCC15692, ATCC15522, ATCC25619, ATCC27853, CCARM2134, CCARM2200, CCARM2029, CCARM2144, CCARM2298, CCARM2326, PR01957, E. coli ATCC8739, Enterobacter cloacae CCARM0252, Klebsiella pneumoniae KCTC2261, Klebsiella aerogenes CCARM16006, Campylobacter jejuni KCTC5327, Cronobacter sakazakii KCTC2949, Salmonella typhimurium ATCC14028, Salmonella enteritidis ATCC13076 was tested.
(§2) The target bacteria spectrum of the bacteriophage PBPA90 and endolysin LNT101 was confirmed by a spot test. For the spot test, bacterium sterilized in 4 ml top agar (1% Tryptone, 0.5% Yeast extract, 0.5% NaCl, 0.7% agar) of 1×10^11 CFU/200 μl were added and poured to a LB plate. After hardening the top agar, the bacteriophage PBPA90 10 μl (1×10^8 PFU/ml) or LNT101 10 μl (2 mg/ml) was spotted, and it was incubated at 37° C. for 18 hours.

Klebsiella pneumoniae [2] = test: Spot test (halo zone); assay type: cell-based; parameters: key: ‘◯’ means production of the halo zone; conditions: K. pneumoniae KCTC 2261
Text: as §1, §2

Salmonella typhimurium = test: Spot test (halo zone); assay type: cell-based; parameters: key: ‘◯’ means production of the halo zone; conditions: S. typhimurium ATCC 14028
Text: as §1, §2

Salmonella enteritidis = test: Spot test (halo zone); assay type: cell-based; parameters: key: ‘◯’ means production of the halo zone; conditions: S. enteritidis ATCC 13076
Text: as §1, §2

Cronobacter sakazakii = test: Spot test (halo zone); assay type: cell-based; parameters: key: ‘◯’ means production of the halo zone; conditions: C. sakazakii KCTC 2949
Text: as §1, §2

Klebsiella aerogenes = test: Spot test (halo zone); assay type: cell-based; parameters: key: ‘◯’ means production of the halo zone; conditions: K. aerugenes CCARM 16006
Text: as §1, §2

Pseudomonas aeruginosa = test: Spot test (halo zone); assay type: cell-based; parameters: key: ‘◯’ means production of the halo zone
Text: as §1, §2

E. coli = test: Spot test (halo zone); assay type: cell-based; parameters: key: ‘◯’ means production of the halo zone; conditions: E. coli ATCC 8739
Text: as §1, §2

Campylobacter jejuni = test: Spot test (halo zone); assay type: cell-based; parameters: key: ‘◯’ means production of the halo zone; conditions: C. jejuni KCTC 5327
Text: as §1, §2

Klebsiella pneumoniae [3] = test: CFU reduction evaluation; assay type: cell-based; conditions: Klebsiella pneumoniae (ATCC 2208); 2 μM, 2 hours
Protocol: (§3) In order to confirm the killing ability against gram negative bacterium of the fusion polypeptide LNT103 prepared in Example 3.2, CFU reduction evaluation was performed for various gram negative bacterium. In order to perform the CFU reduction evaluation, 2 μM of each of LNT101, LNT102, and LNT103 prepared in Example 3, and 1×10^6 CFU of each of Pseudomonas aeruginosa (PA01; ATCC 15692), Acinetobacter baumannii (ATCC 17978), Escherichia coli (ATCC 8739), Klebsiella pneumoniae (ATCC 13883), and Enterobacter aerogenes (CCARM 16006) were added to reaction buffer (20 mM Tris-Cl, pH7.5) so that the final volume was 200 μl, and it was left at 37° C. for 2 hours. After that, the number of the colonies of each gram negative bacterium was confirmed to compare and evaluate the antibiotic effect of each polypeptide. As a control group, the PBS treatment group (treating PBS in the same volume as the fusion polypeptide) was used.

Escherichia coli = test: CFU reduction evaluation; assay type: cell-based; conditions: E. coli (ATCC 8739); 2 μM, 2 hours
Protocol: as §3

Huh-7 cell line = assay type: cell-based
Protocol: In vitro toxicity of the fusion polypeptide LNT103 was evaluated by cell cytotoxicity assay (WST assay) using Huh-7 cell line and hemolysis assay using sheep blood (MB cell).
The process of progressing the cell cytotoxicity assay was as follows. The Huh07 cell culture solution was prepared and aliquoted in an amount of […] per well in a 96 well plate, and it was cultured in a CO2 incubator for 24 hours. Then, PBS as a negative control and 1% (w/v) triton X-100 as a positive control were treated, and as an experimental group, the fusion polypeptide LNT103 was treated at a concentration of 0.25, 0.5, or 1 mg/ml, and then it was left in a CO2 incubator for 24 hours and 48 hours. Then, the cell viability was measured using D-Plus™ CCK cell viability assay kit (Dongin LS), and the result was shown in FIG. 18.

B1: LNT101: endolysin derived from bacteriophage PBPA90, amino acid sequence SEQ ID NO: 1 (259 aa), purified with 6× His tag (protein)
chain: MGTVLKRGDRGSAVEDLQMKLRVAGYAVSADGIFGGDTEKAVRDFQASKALVVDGKVGPATLAELAKSATVPAKWEAIPFPTANKSRSAAMPTLNAVGAMTGTDSRLLATFASIESAFDYTVKASTSSATGWFQFLDATWDDMIKAHGSKYGIPKDPTRALRKDPRANALMGAEFLKGNAAVLRPVINREPSDTDLYLAHFLGAGGAKKFLSADQKTLGEVLFPKPAKANPSIFSNKGVPRTLAEIYKLFEDKVSKHRA
modifications: 6xHis tag; synthetic_Endolysin LNT101
[1]; LNT101 6 μg/larva (30 mg/Kg), 72 hours
  viability of Galleria mellonella: 30%
[1]; LNT101 0.6 or 6 μg/larva, Colistin 0.5 μg/larva, observation for 72 hours
  viability of Galleria mellonella: the viability was increased
Enterobacter cloacae
  production of the halo zone: ◯
Klebsiella pneumoniae [2]
  production of the halo zone: ◯
Salmonella typhimurium
  production of the halo zone: ◯
Salmonella enteritidis
  production of the halo zone: ◯
Cronobacter sakazakii
  production of the halo zone: ◯
Klebsiella aerogenes
  production of the halo zone: ◯
Pseudomonas aeruginosa; P. aeruginosa ATCC 9027
  production of the halo zone: ◯
Pseudomonas aeruginosa; P. aeruginosa ATCC 10145
  production of the halo zone: ◯
Pseudomonas aeruginosa; P. aeruginosa ATCC 13388, 10 μl (2 mg/ml), 37° C. 18 hours
  production of the halo zone: ◯
Pseudomonas aeruginosa; P. aeruginosa ATCC 15522
  production of the halo zone: ◯
Pseudomonas aeruginosa; P. aeruginosa ATCC 15692
  production of the halo zone: ◯
Pseudomonas aeruginosa; P. aeruginosa ATCC 25619
  production of the halo zone: ◯
Pseudomonas aeruginosa; P. aeruginosa ATCC 27853
  production of the halo zone: ◯
Pseudomonas aeruginosa; P. aeruginosa CCARM 2029
  production of the halo zone: ◯
Pseudomonas aeruginosa; P. aeruginosa CCARM 2134
  production of the halo zone: ◯
Pseudomonas aeruginosa; P. aeruginosa CCARM 2144
  production of the halo zone: ◯
Pseudomonas aeruginosa; P. aeruginosa CCARM 2200
  production of the halo zone: ◯
Pseudomonas aeruginosa; P. aeruginosa CCARM 2298
  production of the halo zone: ◯
Pseudomonas aeruginosa; P. aeruginosa CCARM 2326
  production of the halo zone: ◯
Pseudomonas aeruginosa; P. aeruginosa PR1957
  production of the halo zone: ◯
E. coli
  production of the halo zone: ◯
Campylobacter jejuni
  production of the halo zone: ◯

B2: LNT103: fusion polypeptide [Cecropin A]-[linker (GSGSGS)]-[endolysin LNT102]; SEQ ID NO: 15 (MAS, His tag) used in the tests (protein)
chain: MASKWKLFKKIEKVGQNIRDGIIKAGPAVAVVGQATQIAKGSGSGSMGTVLKRGDRGSAVEDLQMKLNVAGYNLSADGIFGGDTEKAVRDVQAGAGLVVDGKVGPKTLYAIAKSATVPAKWEAIPFPTANKSRSAAMPTLNAVGAMTGVDSRLLATFASIESAFDYTVKAKTSSATGWFQFLDATWDDMIKAYGSKYGIPKDPTRALRKDPRANALMGAEFIKGNAAVLRPVINREPSDTDLYLAHFLGAGGAKKFLSADQKTLGEVLFPKPAKANPSIFSNKGVPRTLAEIYKLFEDKVSKHRALEHHHHHH
modifications: synthetic_Fusion Polypeptide LNT103 with MAS, His tag, and extra sequence
Klebsiella pneumoniae [3]
  CFU Counting result: 0 log CFU/ml
Escherichia coli
  CFU Counting result: 0 log CFU/ml
Huh-7 cell line
  IC50 (cytotoxicity): > 1000 µg/mL
